Experimental data reported in PMC13193136.

Tested on: SOX2 DNA-binding domain (human)
Assay: PIC-NIC microarray
Settings: Protein-specific binding buffers (Supplementary Methods, not in the material), PBM incubation 1 h at room temperature, hybridization simulated at 150 mM Na+ …

Row | Substance | binding signal (fold (reference)) | binding signal (fold signal vs intact duplex) (nick at position 3, 5' phosphate)
1 | SOX2 site intact | 1 | 
2 | SOX2 site nick 3, 5'P retained |  | 3
